Laboratory results reported in patent US20140221282A1, “LONG DURATION DUAL HORMONE CONJUGATES” (priority 2011, published 2014).
Ends that are not written are not given here. Y‑shaped mPEG40KD = Y-shaped methoxy-PEG of 40 kDa attached to the Lys side chain; mPEG40KD = methoxy-PEG of 40 kDa

These binders were tested against amylin receptor of rat nucleus accumbens membranes (rat) (assay: competition with 125I-rat amylin, rat nucleus accumbens membranes).
Chain of amylin receptor of rat nucleus accumbens membranes (rat) (P32214 other isoform, or with tags, fused parts or gaps, chain 1 of 2): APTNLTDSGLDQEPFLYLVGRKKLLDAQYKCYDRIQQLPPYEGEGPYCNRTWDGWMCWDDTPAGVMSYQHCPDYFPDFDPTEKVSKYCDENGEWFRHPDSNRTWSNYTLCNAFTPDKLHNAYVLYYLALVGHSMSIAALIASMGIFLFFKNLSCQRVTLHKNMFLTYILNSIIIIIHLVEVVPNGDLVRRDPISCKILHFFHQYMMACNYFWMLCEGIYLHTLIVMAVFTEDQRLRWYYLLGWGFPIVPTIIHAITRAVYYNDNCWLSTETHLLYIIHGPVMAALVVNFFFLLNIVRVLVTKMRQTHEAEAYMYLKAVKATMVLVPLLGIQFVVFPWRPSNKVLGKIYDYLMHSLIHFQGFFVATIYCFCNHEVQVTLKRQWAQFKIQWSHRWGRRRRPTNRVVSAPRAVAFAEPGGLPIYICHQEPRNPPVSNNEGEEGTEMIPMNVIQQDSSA
Chain of amylin receptor of rat nucleus accumbens membranes (rat) (Q9JJ74 27-148, chain 2 of 2, further chain): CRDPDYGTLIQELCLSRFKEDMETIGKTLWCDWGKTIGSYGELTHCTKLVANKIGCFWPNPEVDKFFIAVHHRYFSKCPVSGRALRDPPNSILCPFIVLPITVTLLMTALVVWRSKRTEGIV

Binder	IC50 [nM]
CNTATCATQRLANFLVRSSNNLGPVLPPTNVGSNTY-NH2 (ends and bridges not checked) [[des-Lys^1]-Cmpd 49]	0.42
KCNTATCATQRLANFLVRSSNNLGPK(mPEG40KD)LPPTNVGSNTY-NH2 (ends and bridges not checked) [[K^26(mPEG40KD)]-Cmpd 53]	66
KCNTATCATQRLANFLVRSSNNLGPK(Y‑shaped mPEG40KD)LPPTNVGSNTY-NH2 (ends and bridges not checked) [[K^26(Y-shaped-mPEG40KD)]-Cmpd 53]	470
mPEG40KD-CNTATCATQRLANFLVRSSNNLGPVLPPTNVGSNTY-NH2 (ends and bridges not checked) [mPEG40KD-Cmpd 50]	78
